Patent publication US20070274915

System: AU-tagged PLC-γ1
Sequence (P19174 2-1290): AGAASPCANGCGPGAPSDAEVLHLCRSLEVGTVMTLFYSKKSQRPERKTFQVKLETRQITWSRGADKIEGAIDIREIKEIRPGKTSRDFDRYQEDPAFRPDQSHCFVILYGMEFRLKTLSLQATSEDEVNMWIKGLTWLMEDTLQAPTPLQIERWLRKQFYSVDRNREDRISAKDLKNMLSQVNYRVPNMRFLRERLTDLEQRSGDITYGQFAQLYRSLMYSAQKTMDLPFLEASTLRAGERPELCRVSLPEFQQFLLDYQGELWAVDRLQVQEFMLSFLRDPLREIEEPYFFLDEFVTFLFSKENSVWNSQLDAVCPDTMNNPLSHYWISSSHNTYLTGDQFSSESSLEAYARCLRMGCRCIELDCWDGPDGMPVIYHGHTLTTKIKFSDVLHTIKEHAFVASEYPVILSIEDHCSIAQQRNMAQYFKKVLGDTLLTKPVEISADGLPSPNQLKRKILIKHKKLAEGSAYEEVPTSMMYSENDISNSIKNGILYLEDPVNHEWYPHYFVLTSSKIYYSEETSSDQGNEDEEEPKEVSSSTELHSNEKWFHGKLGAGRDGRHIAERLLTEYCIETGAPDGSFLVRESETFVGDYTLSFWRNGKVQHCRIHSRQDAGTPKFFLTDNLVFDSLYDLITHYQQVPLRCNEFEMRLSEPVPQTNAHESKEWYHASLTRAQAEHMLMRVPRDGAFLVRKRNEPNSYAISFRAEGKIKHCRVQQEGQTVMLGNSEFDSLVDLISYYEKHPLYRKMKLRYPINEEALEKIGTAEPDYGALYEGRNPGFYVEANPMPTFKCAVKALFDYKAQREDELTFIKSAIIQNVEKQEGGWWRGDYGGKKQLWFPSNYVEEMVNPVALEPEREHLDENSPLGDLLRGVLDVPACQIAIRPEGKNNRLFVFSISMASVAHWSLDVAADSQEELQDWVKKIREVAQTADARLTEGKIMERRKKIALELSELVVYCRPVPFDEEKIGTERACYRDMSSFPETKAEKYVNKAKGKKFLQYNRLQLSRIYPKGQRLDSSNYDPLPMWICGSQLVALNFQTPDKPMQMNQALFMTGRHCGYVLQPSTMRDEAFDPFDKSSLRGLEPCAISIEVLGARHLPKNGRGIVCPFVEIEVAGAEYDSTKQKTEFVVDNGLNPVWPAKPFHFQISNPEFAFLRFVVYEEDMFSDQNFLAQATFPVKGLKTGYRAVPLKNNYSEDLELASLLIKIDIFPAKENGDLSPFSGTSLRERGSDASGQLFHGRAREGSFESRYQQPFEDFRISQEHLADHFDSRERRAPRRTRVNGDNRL

Chain of myc-tagged Itch (chain, as listed by the source): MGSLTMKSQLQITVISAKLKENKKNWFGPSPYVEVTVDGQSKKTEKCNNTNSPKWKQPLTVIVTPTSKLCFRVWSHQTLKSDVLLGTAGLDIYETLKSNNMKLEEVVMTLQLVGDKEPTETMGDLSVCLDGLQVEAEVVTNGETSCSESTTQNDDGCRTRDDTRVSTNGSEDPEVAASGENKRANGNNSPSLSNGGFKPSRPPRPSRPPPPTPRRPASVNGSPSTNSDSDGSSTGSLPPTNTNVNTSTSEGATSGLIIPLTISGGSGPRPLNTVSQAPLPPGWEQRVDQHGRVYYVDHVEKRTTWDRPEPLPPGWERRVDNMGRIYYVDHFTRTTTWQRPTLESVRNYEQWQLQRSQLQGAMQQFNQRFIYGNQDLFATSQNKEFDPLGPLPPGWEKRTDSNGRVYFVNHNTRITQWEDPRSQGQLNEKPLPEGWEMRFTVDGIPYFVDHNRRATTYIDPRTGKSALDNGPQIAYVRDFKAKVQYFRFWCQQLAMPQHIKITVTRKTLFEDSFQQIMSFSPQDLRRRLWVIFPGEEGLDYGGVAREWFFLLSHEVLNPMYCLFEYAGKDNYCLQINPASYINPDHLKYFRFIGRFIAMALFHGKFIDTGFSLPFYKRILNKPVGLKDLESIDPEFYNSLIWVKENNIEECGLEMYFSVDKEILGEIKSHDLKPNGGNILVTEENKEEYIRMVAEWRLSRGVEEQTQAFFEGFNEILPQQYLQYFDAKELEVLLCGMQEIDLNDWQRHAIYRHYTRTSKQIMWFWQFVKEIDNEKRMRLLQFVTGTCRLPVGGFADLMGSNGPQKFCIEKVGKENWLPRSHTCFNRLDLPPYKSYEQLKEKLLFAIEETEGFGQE

## myc-tagged Itch
  ionomycin-dependent degradation of PLC-γ1 (HEK 293 transfection, immunoblot): Itch and Nedd4 both facilitated the ionomycin-dependent degradation of PLC-γ1
